Columns and labels:
Assay in all cases: ELISA, antigen coated at 5 µg/mL, anti-HA detection, absorbance at 405 nm
[1] = target: CD28 (human) antigen protein, coated (human, UniProt P10747 19-152)
Experimental: (§1) (2) The antigen proteins PD-1 (human), PD-1 (monkey), PD-1 (mice), ICOS(human), CTLA-4 (human), CD28 (human), IgG1 (human) were coated overnight at 4° C. with 0.5 μg per well (5 μg/mL, 100 μL), and IgG1 was coated as a control.
(§2) (3) The plates were washed by PBST (×5) next day, and 200 μL 1% BSA was added to block in RT for 2 hours;

[2] = target: T1, PD-1 (mice) antigen protein, coated (mouse, UniProt Q02242 25-167, limits assumed)
T1 construct: also called mouse PD-1
T1 sequence (looked up): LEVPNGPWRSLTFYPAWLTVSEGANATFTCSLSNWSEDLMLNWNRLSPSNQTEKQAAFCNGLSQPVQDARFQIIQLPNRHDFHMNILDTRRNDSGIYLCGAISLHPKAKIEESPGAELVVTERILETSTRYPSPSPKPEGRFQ
Experimental: as §1, §2

[3] = target: T2, ICOS (human) antigen protein, coated (human, UniProt Q9Y6W8 21-140, limits assumed)
T2 sequence (looked up): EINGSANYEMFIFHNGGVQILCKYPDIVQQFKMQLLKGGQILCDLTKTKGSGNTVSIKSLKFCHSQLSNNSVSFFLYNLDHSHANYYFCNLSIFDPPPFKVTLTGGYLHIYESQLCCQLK
Experimental: as §1, §2

[4] = target: T3, CTLA-4 (human) antigen protein, coated (human, UniProt P16410 36-161, limits assumed)
T3 sequence (looked up): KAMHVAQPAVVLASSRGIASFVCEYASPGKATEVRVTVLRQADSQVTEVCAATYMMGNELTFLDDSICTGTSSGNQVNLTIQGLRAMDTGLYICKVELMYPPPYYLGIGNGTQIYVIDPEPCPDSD
Experimental: as §1, §2

Sequence of CD28 (human) antigen protein, coated (P10747 19-152 limits assumed): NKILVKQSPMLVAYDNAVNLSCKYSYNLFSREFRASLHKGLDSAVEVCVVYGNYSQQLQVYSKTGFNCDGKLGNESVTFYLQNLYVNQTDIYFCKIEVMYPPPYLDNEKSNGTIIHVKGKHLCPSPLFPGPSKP

binding result [1]: no binding (tested: 10 µg/mL)
binding result [2]: no binding (tested: 10 µg/mL)
binding result [3]: no binding (tested: 10 µg/mL)
binding result [4]: no binding (tested: 10 µg/mL)
B1: humanized PD-1 nanobody (amino acid sequence SEQ ID NO.: 14) (VHH)
VHH: QVQLQESGGGLVQPGGSLRLSCAASGSTYLRFSMGWFRQVPGKGLEGVAAIGGDGRTSYADSVKGRFTISKDNSKNTLYLDMNSLRAEDTAVYYCAAAVLLDGSFSLLAPLVPYKYDYWGQGTLVTVSS
modifications: biotinylated (Example 9, sites not stated)
notes: also called Nanobody after humanization; humanized nanobody; not shown: HA and His tags from the pMECS vector

From patent publication US20190322747A1 (ZHEJIANG TERUISI PHARMACEUTICAL, published 2019)
